This series is described as follows: yeast display, Sf9 membrane polyspecificity reagent, FACS + sequencing; frameworks hold sequencing errors. The method in brief: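 Galactose induction of a Saccharomyces cerevisiae BJ5465 synthetic nanobody display library ran 36–48 hours. The cells were then stained for 1 hour at 4 °C with 10% biotinylated, detergent-solubilized Sf9 membrane reagent, pulled down on streptavidin microbeads and FACS-sorted into low and high (top ~1%) gates on expression and reagent-binding fluorescence. Labels for polyreactivity follow the gate of origin.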
For the sequence “QVQLVESGGGLVQAGGSLRLSCAASGLTFPYYAMGWYRQAPGKERELVAAISSSGGSTYYADSVKGRFTISRDNAKNTVYLQMNSLKPEDTAVYYCAAQRYINYDYWGQGTQVTVSS”, the “polyreactivity (PSR sort gate)” value is given as “high polyreactivity”. The same measure for “QVQLVESGGGLVQAGGSLRLTCAASGSIFGLYAMGWYRHAPGKERELVAAISRTGGSTYYADSVKGRFTISRDNAKNTVYLQMNSLKPEDTAVYSCNAVYFRYRYNYWGQGTQVTVSS”: “high polyreactivity”. The same measure for “QVQLVESGGGLVQAGGSLRLSCAASGFTFDGYAMGWDRQAPGKERELVAAISGGGSTYYADSVKGRFTISRDNAKNTVYLQMNSLKPEDTAVYYCAVVYRYRTRSRSYFLPFDYWGQGTQVTVSS”: “high polyreactivity”; for “QVQLVESGGGLVQAGGSLRLSCAASGRTFYYYALGWYRQAPGKERELVAVIRSSGDSTYYADSVKGRFTISRDNANNTVYLQMNSLKPEDTAVYYCNADPGEVLVGYDYWGQGTQVTVSS”: “low polyreactivity”; for “QVQLVESGGGLVQAGGSLRLSCAASGIIFGVNVMGWYRQAPGKERELVATITWRGDSTYYADSVKGRFTISRDNAKNTVYLQMNSLKPEDTAVYYCARGARTGVREDDYWGQGTQVTVSS”: “low polyreactivity”. With “QVQLVESGGGLVQAGGSLRLSCAASGFTITRNTMGWYRQAPGKERELVAAITRGGSTNYADSVKGRFTISRDNAKNSVYLQMNSLKPEDTAVYYCNKGRNVVLVRTADDYWGQGTQVTVSS”, the “polyreactivity (PSR sort gate)” value was “low polyreactivity”. The same measure for “QVQLVESGGGLVQAGGSLRLSCASSGLISRRNAMGWYRQAPGKERELVAAISTGSSTNYADSVKGRFTISRDNAKNTVYLQMNSLKPEDTAVYYCAATQYWWSTLGIRDDYWGQGTQVTVSS”: “low polyreactivity”. Next, “QVQLVESGGGLVQAGGSLRLSCAASGRIFLYYNMGWYRQAPGKERELVADITWRGGSTYYADSVKGRFTISRDNAKNTVYLQMNSLKPEDTAVYYCNAVSVSSKRSDYWGQGTQVTVSS”: “low polyreactivity”.

As to “QVQLVESGGGLVQAGGSLRLSCAASGRIFRIYAMGWYRQAPGKERELVARITYSGGSTYYADSVKGRFTISRDNAKNTVYLQMNSLKPEDTAVYFCAADWLGYQYGYWGQGTQVTVSS”, the “polyreactivity (PSR sort gate)” value is reported as “low polyreactivity”. Next, “QVQLVESGGGLVQAGGSLRLSCAASGRIISVYAMGWYRQAPGKERELVATITGGNTNYADSVKGRFTISRDNAKNTVYLQMNSLKPEDTAVYYCANQFLPSGVYYEYDSWGQGTQVTVSS”: “low polyreactivity”. The same measure for “EVHLVESGGGLVQPGGSLRLSCAASGDIYSRYRMGWYRQAPGKGREFVAAISGGSSTNYADSVKGRFTISRDNSKNTVYLQMNSLRAVDTAVSYCAAYKIDSDPRVYWGQGTQVTVSS”: “low polyreactivity”; for “QVQLEDSGGGLVQAGGSLRLSCAASGSTISYYTMGWYRQAPGKERELVAAISSGGSTYADSVKGRFTISRDNAKNTVYLQMNSLKPDDTAVYYCAVDGFDYGPSQALDYWGPGTQVTVSS”: “low polyreactivity”. The same measure for “QVQLVESGGGLVQAGGSLRLSCAASGSTFTSNAMGWYRQAPGKERELVASISGSGGRTYYADSVKGRFTISRDNAKNTVYLQMNSLKPEDTAVYYCARRHSVRTVHGYDYWGQGTQVTVSS”: “low polyreactivity”; for “QVQLVESGGGLVQAGGSLRLSCAASGSIFGYYTMGWYRQAPGKERELVAAITSGGSTNYADSVKGRFTISRDNAKNTVYLQMNSLKPEETAVYYCAKVSYYTWRYDYWGQGTQVTVSS”: “low polyreactivity”; for “QLHLQVSGGGLVQAGGSLRLSCAASGSIFLTSEKGWYRQAPGKERELVAAIATGTSTNYADSVKGRFTISRDNAKNTVYLQLNSLKPEDTAVYYCATYDYWGQGTKVTVSS”: “low polyreactivity”.

As to “QVQLVESGGGLVQAGGSLRISCAATGIIFIGYAMGWYRQAPGKERELVAAITRSGVSTYYADSVKGRFTISRDNAKNTVYLQMNSLKPEDTAVYYCAARYFGEKYSHGFDYWGQGTQVTVSS”, the “polyreactivity (PSR sort gate)” value is “low polyreactivity”. Next, “QVQLVESGGGLVQAGGSLRLSFAASGSTFVIYAMGWYRQAPGTERELVAAISGRTGSTYYADSVKGRFTISRDNAKNTVYLQMNSLKPEDTAVYYCAAYKRSGLKYGHWGQGTQVTVSS”: “high polyreactivity”. Next, “QVQLVESGGGLVQAGGSLRLSCAASGHIFTRNAMGWYRQAPGKERELVAAISRTGGSTYYADSVKGRFTISRDNAKNSVYLQMNSLKPEDTAVYYCAKRRQASEDYWGQGTQVTVSS”: “high polyreactivity”. Take “QVQLQESGGGLVQAGGSLRLSCAASGTIFTARFMGWYRQAPGKERELVATITDGGNTNHADSVKGRFTISRDNAKNTVYLQMNSLKPEDAAVYYFAAGEVDNDTLLYWGQGSQVTVSS”: the “polyreactivity (PSR sort gate)” value is reported as “low polyreactivity”. In the case of “QVQLVESGGGLVQAGCSLRLTCAASGSTFKKYAKGWYRQAPGKERDFVAAISRGGRTYYAYSVKGRFTISRDNAKNTVYLQMNSLKPEDTAVYYCAAETFGYQEVYFWGQGTQVTVSS”, the “polyreactivity (PSR sort gate)” value is given as “high polyreactivity”. The same measure for “QDQLVESGGGFVQEGGSLRLSCDPSGRIFYGYVMGRYRQAHGKERELVAAISRRGGSTYYADSVKGRFTISRDNAKNTVYLQMNSMKPVVTAVDYCDAVLSFALVQYYGANRDDYWGQGTQVSVSS”: “high polyreactivity”; for “QVQLVESGGGLVQAGGSLRLSCAASGRIFPANAMGWYRQAPGKERELVAAISSSGGSTYYADSVKGRFTISRDNAKNTVYLQMNSLKPEDTAVYYCAKVHYRWPRVTWPNVWWSFEYWGQGTQVTVSS”: “low polyreactivity”. The same measure for “QVQLVESGRGLLQAGGSLPLSCAASGRIFAYNTMGWYRQAPGKERELVAAISWRGGSTYYADSVKGRFTISRDNAKKTVYFQMNSLKPEDTAVYYCSVLYSSFTRFDYWGQGSQVTVSS”: “high polyreactivity”. In the case of “QVQHVESGGGLVQAGGSLRLSCAASGSIFIANAMGWYRQAPGKERELVAVINWGDGSTYADSVKGRFTISRDNAKNTVYLQMNSLKPEDTAVYYCNAPDEVNDVRYDYWGQGTQVTVSS”, the “polyreactivity (PSR sort gate)” value is “low polyreactivity”. On to “QVQHVESGGGLVQAGCSLRLSCAASGRTFSSNAMGWYRQAHGKVRELVAVISSGGSTYYADSVKGRFTISRDNAKNTVYLEMYSMKPEDTAVYICAAAVGPSGYYYESDYWGQGTQETVSS”, for which the “polyreactivity (PSR sort gate)” value was “high polyreactivity”. Next, “QVQLVESVGGLVQAGGSLRLSCAASGNTFYAYAMGWYRQAPGKERELVAAIRKSGGNTYYADSVKGRFTISRYNAKNNVYLQMYSLKPEDTAVYYCAARYRGYAFLNYDYWGQGTQVTVSS”: “low polyreactivity”; “QVPLVESGGGLLQAGGSLRLSCSASGYTFSKYAMGWYRQAPGKERELVAAISFSGGSTYYADSVKGRFTISRDNAKNTVYLLMNSLKPEDTAVYYCDKYTITNYDYWGQGTLVTVSS”: “low polyreactivity”.

For the sequence “QVQLVESGGGLVQAGGSLRLISAASGIIFWGNAMGWYRQPPGNERELVATITGRGGSTYYADSVKGRFTISRDYAKNTVYLQMNSLKPEDTAVYYCAASGGRPILFYDVWGGIVRHEYWGQGTQVTVSS”, the “polyreactivity (PSR sort gate)” value is “low polyreactivity”. The same measure for “QDQLVESGGGLVQAGGSHRLSCAASGRNFNYNAMGWYRQAPGKERELVAAISGSGGRTYYADSVKGRFTISRDNAKNTVYLQMNSLKPEDTAVYYCAAAGYDSNGRYWGQGTLVTVSS”: “high polyreactivity”. Take “QVQLVESGGGLVQAGGSLRLSCAASGSTFWPYAMGWYRQAPGKERELVAAITSSGGSTYYADSVKGRFTISRDNAKNTVYLQRNSLKPEDTAVYYCAADWSNLGAYDYWGQGTQVTVSS”: the “polyreactivity (PSR sort gate)” value is on record as “low polyreactivity”. As for “QVQLVESGGGLVQAGGSLRLSCAASGSTFRGYAMGWYRLAPGKEREFVASISLSGGSTYYADSVKGRFTISRDNAKNTVDSQMNSRKPEDTAVYDGAARARGYGWRGDYWGQGTHVTVSS”, the “polyreactivity (PSR sort gate)” value was “low polyreactivity”. Take “QDQLVESAGGLVQAGGSLRLSCAASGSISYNNVMGWYRQAPGKERELVARIRSGGSTYYADSVKGRFTISRDNAKNTVYLQMNSLKPEDTAVYYCAARTKRQAGSYGYWGQGTQVTVSS”: the “polyreactivity (PSR sort gate)” value is given as “high polyreactivity”. The same measure for “QVQLVESGGGLVQAGGSLRLSCDASGSIFRGNAMGCYRQAPGKERELVPDITSGSNTYYADSVKGRFTISRDNAKNTVYLQMNSLKPEDTAVYYCAADGVAYPWWSVYNSFDYWGQGTQVTVSS”: “low polyreactivity”.

With “QVQLVESGGGLVQAGGSLRLSCAASGYTFSYNAMGWYRQAPGKERELVARITRGTSTYADSVKGRFTISRDNAKNTVYLQMNSLKPEDTAVYYCAARPGSGRSYTSDYWGQGSQVTVSS”, the “polyreactivity (PSR sort gate)” value is recorded as “high polyreactivity”. The same measure for “QVQLVESGGGLVQAGGSLRLSCAASGITFYWYTMGWYRQAPGKERELVADIEGDGGSTYYADSVKGRFTISRDNAKNTVYLQMNSLKPEDTAVYYCAAQVWPWGYDYWGQGTQVTVSS”: “high polyreactivity”; for “QVQLVESGGGLVQAGGSLRLSCAASGSIFYAYAMGWYRQAPGKEREFVAVISYSGGSTYYADSVKGRFTISRDNAKNTVYLQMNSLKPEDTAVYYCAARYRRPYSYYYWGQGTQVTVSS”: “high polyreactivity”; for “QVQLVESGGGLVQAGGSLRLSCAASGFTFKHYAMGWYRQAPGKEREFVAAITGSGGSTYYADSVKGRFTISRDNAKITVYLEMNSLKPEDTAVYYCAASDVSRYRPYRRFDYWGQGTQVTVSS”: “high polyreactivity”. For the sequence “QVQLVESGGGLVQAGGSLRLSCAASGSTSERYDMGWYRQAPGKERELVATITWSGGDTHYADSVKGRFTISRDNAKNTVYLQMNSLKPVDTAVYYCAAEYTFVWGLWYDYWGQGTQVTVSS”, the “polyreactivity (PSR sort gate)” value was “low polyreactivity”. Next, “QVQLVESGGGLVQAGGSLRLSCAASGSTAYVMGWYRQAPGKETELVAAISKSGGSTYYADSVKGRFTISRDNAKNTVYLQMNSLKPEDTAVYYCSALYPTTTAYRYGYWGQGTQVTVSS”: “high polyreactivity”. Next, “QVQLVESGGGLVQAGGSLRLSCAASGSTLDSYTMGWYRQAPGKERELVATISTSGGSTYYADAVKGRFTISRDNAKNTVSIQMNSLKPEDTAVYYCKADAPFGPNRYNSWGQGTQVTVSS”: “low polyreactivity”; “QVQLVESGGGLVQAGGSLRLSCAASGFTYGINAMGWYRQAPGKERELVASISSGSSTTYADSVKGRFTISRDNATNTVYLQMISLKPEDTAVYYCNARPFHIYWRYDYWGQGTQVTVSS”: “low polyreactivity”.
